Measurements from patent publication US20110152341.
Substitutions are numbered along the chain they refer to.

T1: APP-derived peptide substrate D597isoD, H-GLTNIKTEEISEVKMi…-NH2
T1 chain: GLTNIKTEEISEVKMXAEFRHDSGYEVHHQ

T2: APP-derived peptide substrate E599Q, H-GLTNIKTEEISEVKMDAQFRHDSGYEVHHQ-NH2
T2 chain: T1 chain with X16D, E18Q

T3: APP-derived peptide substrate sw D597isoD, H-GLTNIKTEEISEVNLi…-NH2
T3 chain: T1 chain with K14N, M15L

T4: APP-derived peptide substrate sw E599Q, H-GLTNIKTEEISEVNLDAQFRHDSGYEVHHQ-NH2
T4 chain: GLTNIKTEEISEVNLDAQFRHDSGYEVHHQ

T5: APP-derived peptide substrate swedish (sw), H-GLTNIKTEEISEVNLDAEFRHDSGYEVHHQ-NH2
T5 chain: T4 chain with Q18E

T6: APP-derived peptide substrate wildtyp (wt), H-GLTNIKTEEISEVKMDAEFRHDSGYEVHHQ-NH2
T6 chain: T1 chain with X16D

B1: Recombinant human meprin α (R&D systems) (protein)
chain: VPIKYLPEENVHDADFGEQKDISEINLAAGLDLFQGDILLQKSRNGLRDPNTRWTFPIPYILADNLGLNAKGAILYAFEMFRLKSCVDFKPYEGESSYIIFQQFDGCWSEVGDQHVGQNISIGQGCAYKAIIEHEILHALGFYHEQSRTDRDDYVNIWWDQILSGYQHNFDTYDDSLITDLNTPYDYESLMHYQPFSFNKNASVPTITAKIPEFNSIIGQRLDFSAIDLERLNRMYNCTTTHTLLDHCTFEKANICGMIQGTRDDTDWAHQDSAQAGEVDHTLLGQCTGAGYFMQFSTSSGSAEEAALLESRILYPKRKQQCLQFFYKMTGSPSDRLVVWVRRDDSTGNVRKLVKVQTFQGDDDHNWKIAHVVLKEEQKFRYLFQGTKGDPQNSTGGIYLDDITLTETPCPTGVWTVRNFSQVLENTSKGDKLQSPRFYNSEGYGFGVTLYPNSRESSGYLRLAFHVCSGENDAILEWPVENRQVIITILDQEPDVRNRMSSSMVFTTSKSHTSPAINDTVIWDRPSRVGTYHTDCNCFRSIDLGWSGFISHQMLKRRSFLKNDDLIIFVDFEDITHLSQTEVPTKGKRLSPQGLILQGQEQQVSEEGSGKAMLEEALPVSLSQGQPSRQKRSVENTGPLEDHNWPQYFRDPCDPNPCQNDGICVNVKGMASCRCISGHAFFYTGERCQAV
B2: Human meprin β transiently overexpressed in HEK293 cells (pcDNA-hMPβ) (protein)
chain: NSIIGEKYRWPHTIPYVLEDSLEMNAKGVILNAFERYRLKTCIDFKPWAGETNYISVFKGSGCWSSVGNRRVGKQELSIGANCDRIATVQHEFLHALGFWHEQSRSDRDDYVRIMWDRILSGREHNFNTYSDDISDSLNVPYDYTSVMHYSKTAFQNGTEPTIVTRISDFEDVIGQRMDFSDSDLLKLNQLYNCSSSLSFMDSCSFELENVCGMIQSSGDNADWQRVSQVPRGPESDHSNMGQCQGSGFFMHFDSSSVNVGATAVLESRTLYPKRGFQCLQFYLYNSGSESDQLNIYIREYSADNVDGNLTLVEEIKEIPTGSWQLYHVTLKVTKKFRVVFEGRKGSGASLGGLSIDDINLSETRCPHHIWHIRNFTQFIGSPNGTLYSPPFYSSKGYAFQIYLNLAHVTNAGIYFHLISGANDDQLQWPCPWQQATMTLLDQNPDIRQRMSNQRSITTDPFMTTDNGNYFWDRPSKVGTVALFSNGTQFRRGGGYGTSAFITHERLKSRDFIKGDDVYILLTVEDISHLNSTQIQLTPAPSVQDLCSKTTCKNDGVCTVRDGKAECRCQSGEDWWYMGERCEKRGSTRDTIVIAVSSTVAVFALMLIITLVSVYCTRKKYRERMSSNRPNLTPQNQHAF
B3: Recombinant human meprin β (R&D systems) (protein)
chain: TPENFDVDGGMDQDIFDINEGLGLDLFEGDIRLDRAQIRNSIIGEKYRWPHTIPYVLEDSLEMNAKGVILNAFERYRLKTCIDFKPWAGETNYISVFKGSGCWSSVGNRRVGKQELSIGANCDRIATVQHEFLHALGFWHEQSRSDRDDYVRIMWDRILSGREHNFNTYSDDISDSLNVPYDYTSVMHYSKTAFQNGTEPTIVTRISDFEDVIGQRMDFSDSDLLKLNQLYNCSSSLSFMDSCSFELENVCGMIQSSGDNADWQRVSQVPRGPESDHSNMGQCQGSGFFMHFDSSSVNVGATAVLESRTLYPKRGFQCLQFYLYNSGSESDQLNIYIREYSADNVDGNLTLVEEIKEIPTGSWQLYHVTLKVTKKFRVVFEGRKGSGASLGGLSIDDINLSETRCPHHIWHIRNFTQFIGSPNGTLYSPPFYSSKGYAFQIYLNLAHVTNAGIYFHLISGANDDQLQWPCPWQQATMTLLDQNPDIRQRMSNQRSITTDPFMTTDNGNYFWDRPSKVGTVALFSNGTQFRRGGGYGTSAFITHERLKSRDFIKGDDVYILLTVEDISHLNSTQIQLTPAPSVQDLCSKTTCKNDGVCTVRDGKAECRCQSGEDWWYMGERCEKRGSTRDT

Assays:
[1] = target: T1, APP-derived peptide substrate D597isoD, …
[2] = target: T2, APP-derived peptide substrate E599Q, …
[3] = target: T3, APP-derived peptide substrate sw …
[4] = target: T4, APP-derived peptide substrate sw E599Q, …
[5] = target: T5, APP-derived peptide substrate swedish …
[6] = target: T6, APP-derived peptide substrate wildtyp …
[7] = target: Human APP wildtyp transiently overexpressed in HEK293 cells (pcDNA-hAPP)
[8] = target: Human APP with mutation E599Q overexpressed in HEK293 cells (pcDNA-hAPP/E3Q)
[9] = target: Human APP with swedish mutation K595N, M596L overexpressed in HEK293 cells (pcDNA-hAPPsw)

Human APP with mutation E599Q overexpressed in HEK293 cells (pcDNA-hAPP/E3Q), sequence (chain, as listed by the source E599Q): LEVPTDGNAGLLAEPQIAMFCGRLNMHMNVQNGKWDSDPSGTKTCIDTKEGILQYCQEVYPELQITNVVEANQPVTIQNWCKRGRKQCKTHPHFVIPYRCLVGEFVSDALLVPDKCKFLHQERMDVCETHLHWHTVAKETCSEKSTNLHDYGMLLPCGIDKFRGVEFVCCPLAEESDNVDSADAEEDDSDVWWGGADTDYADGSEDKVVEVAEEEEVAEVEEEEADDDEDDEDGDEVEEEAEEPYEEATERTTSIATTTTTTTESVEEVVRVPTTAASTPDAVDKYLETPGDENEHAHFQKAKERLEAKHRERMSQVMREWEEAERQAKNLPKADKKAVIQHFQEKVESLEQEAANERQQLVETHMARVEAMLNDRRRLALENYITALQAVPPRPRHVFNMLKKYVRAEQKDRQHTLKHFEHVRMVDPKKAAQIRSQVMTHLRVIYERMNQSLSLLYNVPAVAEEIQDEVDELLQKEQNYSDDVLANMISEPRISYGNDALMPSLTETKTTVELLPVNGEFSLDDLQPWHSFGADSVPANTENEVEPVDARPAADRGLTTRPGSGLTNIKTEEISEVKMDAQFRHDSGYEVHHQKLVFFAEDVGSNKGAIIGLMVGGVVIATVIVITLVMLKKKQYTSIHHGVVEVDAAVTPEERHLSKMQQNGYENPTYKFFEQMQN

Row | Protein | peptide cleavage, fragments by MALDI-TOF mass spectrometry (numbering according to substrate 1-30) [1] | peptide cleavage, fragments by MALDI-TOF mass spectrometry (numbering according to substrate 1-30) [2] | peptide cleavage, fragments by MALDI-TOF mass spectrometry (numbering according to substrate 1-30) [3] | peptide cleavage, fragments by MALDI-TOF mass spectrometry (numbering according to substrate 1-30) [4] | peptide cleavage, fragments by MALDI-TOF mass spectrometry (numbering according to substrate 1-30) [5] | peptide cleavage, fragments by MALDI-TOF mass spectrometry (numbering according to substrate 1-30) [6] | amount of secreted Aβ (ELISA from IBL, non specific for the Aβ N-terminus) [7] | generated Aβ species by urea western-blot after immuno-precipitation [7] | secreted Aβ estimated with antibody 6E10 (ELISA) [7] | secretion of Aβ (ELISA, IBL kit with antibody 6E10), with and without 20 µM actinonin [7] | amount of secreted Aβ (ELISA from IBL, non specific for the Aβ N-terminus) [8] | secreted Aβ estimated with antibody 6E10 (ELISA) [8] | secreted Aβ estimated with antibody 6E10 (ELISA) [9]
1 | B1 | The fragments 5-30, 7-30, 1-21, 1-15, 17-30 and 16-30 were identified. | The fragments 5-30, 7-30, 5-21, 12-30 and 7-21 were identified. | The fragments 5-30 and 7-30 were identified. | The fragments 1-21, 7-30 and 5-30 were identified. | The fragments 5-30, 7-30 and 16-30 were identified. | The fragments 5-30, 7-30, 17-30 and 16-30 were identified. |  |  |  |  |  |  | 
2 | B2 |  |  |  |  |  |  | significantly increased for APPwt and APP/E3Q | revealed the formation of an additional Aβ species after co-transfection with hAPP and human meprin β compared to transfection with hAPP. This additional Aβ species co-migrates with Aβ3-40. | Secretion of Aβ is significantly increased after transfection with pcDNA-hMPβ and pcDNA-hAPP wildtyp, swedish and E3Q. | Secretion of Aβ is significantly increased in HEK293 after transient overexpression of hAPP and hMPβ (see FIG. 26). This increase is reduced to almost the basal level by the addition of 20 µM actinonin. | significantly increased for APPwt and APP/E3Q | Secretion of Aβ is significantly increased after transfection with pcDNA-hMPβ and pcDNA-hAPP wildtyp, swedish and E3Q. | Secretion of Aβ is significantly increased after transfection with pcDNA-hMPβ and pcDNA-hAPP wildtyp, swedish and E3Q.
3 | B3 | The fragments 1-15, 1-16, 17-30 and 16-30 were identified. | The fragments 8-30, 9-30, 1-22, 1-21, 12-30 17-30 18-30 9-21 were identified. | The fragment 12-30 were identified. | The fragments 16-30, 1-15, 9-21 and 9-20 were identified. | The fragments 16-30, 17-30 1-15 and 18-30 were identified. | The fragments 1-16, 1-15, 17-30, and 18-30 were identified. |  |  |  |  |  |  | 
